The values below come from IntAct's records for PubMed 21804599.

Sequences and labels used below:
B1: "Na(+)/H(+) exchange regulatory cofactor NHE-RF1" (Homo sapiens), O14745 (parent)
chain: MSADAAAGAPLPRLCCLEKGPNGYGFHLHGEKGKLGQYIRLVEPGSPAEKAGLLAGDRLVEVNGENVEKETHQQVVSRIRAALNAVRLLVVDPETDEQLQKLGVQVREELLRAQEAPGQAEPPAAAEVQGAGNENEPREADKSHPEQRELRPRLCTMKKGPSGYGFNLHSDKSKPGQFIRSVDPDSPAEASGLRAQDRIVEVNGVCMEGKQHGDVVSAIRAGGDETKLLVVDRETDEFFKKCRVIPSQEHLNGPLPVPFTNGEIQKENSREALAEAALESPRPALVRSASSDTSEELNSQDSPPKQDSTAPSSTSSSDPILDFNISLAMAKERAHQKRSSKRAPQMDWSKKNELFSNL
partner: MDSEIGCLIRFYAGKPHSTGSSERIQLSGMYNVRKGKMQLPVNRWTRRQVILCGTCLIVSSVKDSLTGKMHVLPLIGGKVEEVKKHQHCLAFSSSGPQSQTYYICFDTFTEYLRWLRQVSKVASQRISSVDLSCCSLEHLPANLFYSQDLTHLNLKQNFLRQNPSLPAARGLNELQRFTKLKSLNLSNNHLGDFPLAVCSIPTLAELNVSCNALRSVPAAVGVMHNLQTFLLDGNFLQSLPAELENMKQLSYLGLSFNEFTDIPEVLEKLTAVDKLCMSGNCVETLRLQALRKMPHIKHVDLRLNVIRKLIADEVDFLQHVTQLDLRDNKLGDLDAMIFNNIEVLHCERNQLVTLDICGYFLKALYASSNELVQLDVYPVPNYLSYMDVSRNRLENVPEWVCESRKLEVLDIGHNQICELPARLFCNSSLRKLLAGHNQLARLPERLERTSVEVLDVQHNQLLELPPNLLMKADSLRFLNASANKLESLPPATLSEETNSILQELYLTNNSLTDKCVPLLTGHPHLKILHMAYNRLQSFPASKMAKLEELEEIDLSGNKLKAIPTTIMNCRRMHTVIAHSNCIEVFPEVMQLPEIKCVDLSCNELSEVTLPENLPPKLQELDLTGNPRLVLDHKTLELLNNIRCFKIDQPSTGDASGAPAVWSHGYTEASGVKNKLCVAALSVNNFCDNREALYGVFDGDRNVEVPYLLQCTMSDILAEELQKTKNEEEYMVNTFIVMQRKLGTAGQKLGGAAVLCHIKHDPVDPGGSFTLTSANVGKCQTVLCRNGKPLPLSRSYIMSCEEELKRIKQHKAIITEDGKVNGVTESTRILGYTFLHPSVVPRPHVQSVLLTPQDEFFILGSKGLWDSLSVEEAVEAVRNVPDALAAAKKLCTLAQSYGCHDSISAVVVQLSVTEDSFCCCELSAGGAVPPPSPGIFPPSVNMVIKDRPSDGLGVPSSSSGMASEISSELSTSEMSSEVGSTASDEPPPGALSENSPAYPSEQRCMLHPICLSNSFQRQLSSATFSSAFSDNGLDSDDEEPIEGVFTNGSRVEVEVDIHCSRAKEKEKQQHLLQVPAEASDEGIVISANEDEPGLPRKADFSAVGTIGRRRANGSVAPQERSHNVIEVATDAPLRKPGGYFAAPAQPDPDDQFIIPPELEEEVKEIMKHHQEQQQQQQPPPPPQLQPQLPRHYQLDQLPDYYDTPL
B2: "Na(+)/H(+) exchange regulatory cofactor NHE-RF1" (Homo sapiens), O14745 (parent)
chain: B1 chain
partner: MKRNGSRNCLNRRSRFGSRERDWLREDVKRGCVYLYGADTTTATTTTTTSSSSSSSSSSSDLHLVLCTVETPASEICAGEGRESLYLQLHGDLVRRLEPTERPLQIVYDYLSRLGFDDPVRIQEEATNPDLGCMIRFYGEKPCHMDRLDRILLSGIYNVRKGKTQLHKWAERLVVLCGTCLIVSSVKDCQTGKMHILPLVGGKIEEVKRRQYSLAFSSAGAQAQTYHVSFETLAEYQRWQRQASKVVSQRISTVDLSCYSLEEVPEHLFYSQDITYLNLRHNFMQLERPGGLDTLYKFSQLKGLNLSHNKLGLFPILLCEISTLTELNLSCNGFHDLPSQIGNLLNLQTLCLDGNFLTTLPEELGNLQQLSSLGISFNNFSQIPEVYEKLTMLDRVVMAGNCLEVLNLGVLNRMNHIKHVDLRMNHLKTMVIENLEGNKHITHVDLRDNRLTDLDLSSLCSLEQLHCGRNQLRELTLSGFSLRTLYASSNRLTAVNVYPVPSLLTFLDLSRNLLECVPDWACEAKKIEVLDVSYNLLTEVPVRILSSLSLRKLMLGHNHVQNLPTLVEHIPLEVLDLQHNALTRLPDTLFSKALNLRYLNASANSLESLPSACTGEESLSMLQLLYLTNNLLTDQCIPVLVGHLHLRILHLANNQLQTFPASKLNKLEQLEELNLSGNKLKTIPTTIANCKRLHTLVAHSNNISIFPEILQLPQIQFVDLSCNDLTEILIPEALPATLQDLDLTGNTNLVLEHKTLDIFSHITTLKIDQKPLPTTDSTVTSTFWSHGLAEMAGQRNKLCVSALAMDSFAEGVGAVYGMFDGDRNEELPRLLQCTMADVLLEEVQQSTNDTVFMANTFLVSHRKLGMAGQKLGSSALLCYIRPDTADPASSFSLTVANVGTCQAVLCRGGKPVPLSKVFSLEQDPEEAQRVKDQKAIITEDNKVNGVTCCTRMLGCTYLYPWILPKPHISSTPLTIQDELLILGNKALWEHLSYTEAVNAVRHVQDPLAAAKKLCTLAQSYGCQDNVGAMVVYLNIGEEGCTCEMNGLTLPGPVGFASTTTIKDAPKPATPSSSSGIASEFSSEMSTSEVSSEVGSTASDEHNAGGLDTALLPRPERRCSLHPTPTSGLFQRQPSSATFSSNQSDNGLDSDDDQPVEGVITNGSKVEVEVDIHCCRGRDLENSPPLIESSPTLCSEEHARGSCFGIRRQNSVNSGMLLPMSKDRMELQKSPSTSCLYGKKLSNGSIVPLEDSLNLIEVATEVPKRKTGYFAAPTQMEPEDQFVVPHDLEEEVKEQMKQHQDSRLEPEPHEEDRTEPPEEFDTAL

Variants of B1 are the subject of one assay. As to conditions: with PHLPP1, O60346-2.
As for MSADAAAGAPLPRLCCLEKGPNGYGFHLHGEKGKLGRYIRLVEPGSPAEKAGLLAGDRLVEVNGENVEKETHQQVVSRIRAALNAVRLLVVDPETDEQLQKLGVQVREELLRAQEAPGQAEPPAAAEVQGAGNENEPREADKSHPEQRELRPRLCTMKKGPSGYGFNLHSDKSKPGQFIRSVDPDSPAEASGLRAQDRIVEVNGVCMEGKQHGDVVSAIRAGGDETKLLVVDRETDEFFKKCRVIPSQEHLNGPLPVPFTNGEIQKENSREALAEAALESPRPALVRSASSDTSEELNSQDSPPKQDSTAPSSTSSSDPILDFNISLAMAKERAHQKRSSKRAPQMDWSKKNELFSNL [Q37R], the “effect of a mutation on the interaction” value was “disrupting interaction”.

A further assay covers variants of B2. The conditions noted are these: with phlp2_human PHLPP2, Q6ZVD8.
Turning to MSADAAAGAPLPRLCCLEKGPNGYGFHLHGEKGKLGRYIRLVEPGSPAEKAGLLAGDRLVEVNGENVEKETHQQVVSRIRAALNAVRLLVVDPETDEQLQKLGVQVREELLRAQEAPGQAEPPAAAEVQGAGNENEPREADKSHPEQRELRPRLCTMKKGPSGYGFNLHSDKSKPGQFIRSVDPDSPAEASGLRAQDRIVEVNGVCMEGKQHGDVVSAIRAGGDETKLLVVDRETDEFFKKCRVIPSQEHLNGPLPVPFTNGEIQKENSREALAEAALESPRPALVRSASSDTSEELNSQDSPPKQDSTAPSSTSSSDPILDFNISLAMAKERAHQKRSSKRAPQMDWSKKNELFSNL [Q37R], the “effect of a mutation on the interaction” value was “disrupting interaction”.
